In PMC12416549 (2024):
Substitutions are numbered along the chain they refer to. Numbers in names are those of the source.

T1: TNFR1 (Homo sapiens, UniProt P19438)
T1 chain: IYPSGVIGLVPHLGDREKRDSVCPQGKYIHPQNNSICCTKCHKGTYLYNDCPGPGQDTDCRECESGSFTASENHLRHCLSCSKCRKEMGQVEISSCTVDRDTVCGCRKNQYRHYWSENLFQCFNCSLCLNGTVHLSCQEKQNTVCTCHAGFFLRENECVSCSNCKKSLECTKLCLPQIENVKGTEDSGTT

B1: E83A (designed binder)
chain: SMEEEVEKAAKEYEKKKKEAIEKHLEKLKAKDKEAAERFLKELEEAAKEYAKDEAKTMSEEEAKRRAKKYKEKVLLSELSEEAQKEIKEAEEKLVRTILKYVEEAAK
B2: A20P (designed binder)
chain: B1 chain with A20P, A83E
B3: E7A (designed binder)
chain: B1 chain with E7A, A83E
B4: L25H (designed binder)
chain: B1 chain with L25H, A83E
B5: K52V (designed binder)
chain: B1 chain with K52V, A83E
B6: V95W (designed binder)
chain: B1 chain with A83E, V95W
B7: A30Y (designed binder)
chain: B1 chain with A30Y, A83E
B8: S77E (designed binder)
chain: B1 chain with S77E, A83E
B9: K85F (designed binder)
chain: B1 chain with A83E, K85F
B10: V74H (designed binder)
chain: B1 chain with V74H, A83E
B11: K16C (designed binder)
chain: B1 chain with K16C, A83E
B12: K64L (designed binder)
chain: B1 chain with K64L, A83E
B13: S1W (designed binder)
chain: B1 chain with S1W, A83E
B14: L25W (designed binder)
chain: B1 chain with L25W, A83E
B15: L28C (designed binder)
chain: B1 chain with L28C, A83E
B16: Y13C (designed binder)
chain: B1 chain with Y13C, A83E
B17: K16G (designed binder)
chain: B1 chain with K16G, A83E
B18: K29F (designed binder)
chain: B1 chain with K29F, A83E
B19: K16E (designed binder)
chain: B1 chain with K16E, A83E
B20: A36K (designed binder)
chain: B1 chain with A36K, A83E
B21: E104R (designed binder)
chain: B1 chain with A83E, E104R
B22: F39C (designed binder)
chain: B1 chain with F39C, A83E
B23: E103I (designed binder)
chain: B1 chain with A83E, E103I
B24: K33L (designed binder)
chain: B1 chain with K33L, A83E

Target: T1, TNFR1
Experiment: yeast display SC50

| Binder | apparent Kd (screen) |
| --- | --- |
| B1 | 405 pM |
| B2 | 3630 pM |
| B3 | 3630 pM |
| B4 | 490 pM |
| B5 | 956 pM |
| B6 | 13800 pM |
| B7 | 446 pM |
| B8 | 869 pM |
| B9 | 539 pM |
| B10 | 6430 pM |
| B11 | 1050 pM |
| B12 | 446 pM |
| B13 | 3630 pM |
| B14 | 446 pM |
| B15 | 490 pM |
| B16 | 1270 pM |
| B17 | 490 pM |
| B18 | 1050 pM |
| B19 | 1540 pM |
| B20 | 490 pM |
| B21 | 446 pM |
| B22 | 5310 pM |
| B23 | 539 pM |
| B24 | 653 pM |
